T1: human TMPRSS11E, full-length, forced expression on cells (DG44, Ba/F3, SK-Hep-1) (human, UniProt Q9UL52 1-423)
T1 construct: also called DESC1; BaF/TMPRSS11E; not shown: C-terminal tag added through the antisense primer
T1 sequence: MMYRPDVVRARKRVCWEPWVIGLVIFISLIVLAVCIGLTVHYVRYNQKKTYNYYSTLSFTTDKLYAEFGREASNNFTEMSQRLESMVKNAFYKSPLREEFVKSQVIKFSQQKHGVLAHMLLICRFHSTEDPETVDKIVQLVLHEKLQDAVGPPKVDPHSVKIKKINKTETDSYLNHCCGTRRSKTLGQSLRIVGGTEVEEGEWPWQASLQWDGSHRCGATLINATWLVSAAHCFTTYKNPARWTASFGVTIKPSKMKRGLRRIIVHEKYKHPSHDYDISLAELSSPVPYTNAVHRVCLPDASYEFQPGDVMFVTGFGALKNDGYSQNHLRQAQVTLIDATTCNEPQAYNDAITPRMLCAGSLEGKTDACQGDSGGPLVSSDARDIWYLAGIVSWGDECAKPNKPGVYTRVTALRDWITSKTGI

T2: human TMPRSS11E, endogenous, on cancer cell lines and in clinical cancer tissues (human, UniProt Q9UL52 1-423)
T2 construct: Endogenous protein of h2009, h2087, ME-180 and colo201 cells and of lung, uterine cervix and esophagus cancer tissue sections; also called DESC1
T2 sequence: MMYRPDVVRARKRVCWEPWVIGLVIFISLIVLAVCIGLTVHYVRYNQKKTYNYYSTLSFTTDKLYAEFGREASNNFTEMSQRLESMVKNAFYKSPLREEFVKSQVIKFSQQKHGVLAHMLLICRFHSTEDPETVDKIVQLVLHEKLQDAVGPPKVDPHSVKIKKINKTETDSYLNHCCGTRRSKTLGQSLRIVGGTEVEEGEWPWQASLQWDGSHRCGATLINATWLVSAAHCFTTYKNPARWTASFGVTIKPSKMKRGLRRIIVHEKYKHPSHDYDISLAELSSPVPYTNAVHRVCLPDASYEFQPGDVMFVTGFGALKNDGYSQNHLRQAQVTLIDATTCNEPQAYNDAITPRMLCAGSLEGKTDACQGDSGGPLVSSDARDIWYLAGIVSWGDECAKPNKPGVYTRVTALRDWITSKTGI

T3: fusion protein of MBP and TMPRSS11E SEA domain (human, UniProt Q9UL52 42-191)
T3 construct: Expressed in E. coli, purified and immobilized for the screening ELISA; also called fusion proteins of MBP and SEA domains
T3 sequence: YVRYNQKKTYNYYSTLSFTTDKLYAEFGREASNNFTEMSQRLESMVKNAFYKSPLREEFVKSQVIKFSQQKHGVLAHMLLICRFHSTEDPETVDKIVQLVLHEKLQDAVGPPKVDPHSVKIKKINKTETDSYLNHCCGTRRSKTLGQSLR


Experiments:
[1] = target: T1, human TMPRSS11E, full-length, forced …; test: flow cytometry on TMPRSS11E-expressing Ba/F3 cells, FITC anti-human IgG detection (FIG. 2)
Experimental: (§1) The TMPRSS11E-constantly expressing cells thus constructed were evaluated for binding to the parental strain thereof by flow cytometry. The anti-TMPRSS11E antibody diluted to an appropriate concentration was added to cells corresponding to 5×10⁵ and reacted for 1 hour on ice. The cells were washed by centrifugation. Then, FITC-labeled anti-human IgG antibodies were added thereto and reacted for 1 hour on ice. The cells were washed by centrifugation and then suspended in a medium containing 2 μg/mL propidium iodide, and the suspension was applied to FACS Calibur (Becton, Dickinson and Company). […] The chimeric antibodies and low-fucose chimeric antibodies had equivalent avidity. Next, avidity to various cancer cell lines was evaluated by flow cytometry.

[2] = target: T2, human TMPRSS11E, endogenous, on cancer …; test: flow cytometry on cancer cell lines h2009, h2087, ME-180, colo201 (FIG. 3)
Experimental: as §1

[3] = target: T1, human TMPRSS11E, full-length, forced …; test: flow cytometry on TMPRSS11E-expressing SK-Hep-1 cells (FIG. 9)
[4] = target: T3, fusion protein of MBP and TMPRSS11E SEA …; test: screening ELISA on immobilized MBP-SEA domain fusion protein
Experimental: This fusion protein was used to immunize Balb/c mice or MRL/lpr mice. Hybridomas were established in the same way as above. New England Biolabs Inc. pMALc2x vectors were used in screening, which was performed by ELISA using fusion proteins of MBP and SEA domains that were expressed in E. coli, then purified, and immobilized on a solid phase. […] The nucleotide sequence of the EA230 heavy chain variable region is shown in SEQ ID NO: 53, and its amino acid sequence is shown in SEQ ID NO: 54. The nucleotide sequence of the EA230 light chain variable region is shown in SEQ ID NO: 55, and its amino acid sequence is shown in SEQ ID NO: 56.

[5] = target: T2, human TMPRSS11E, endogenous, on cancer …; test: immunoblot of lysates of cancer cell lines (h2009, ME-180), 0.5 ug/mL EA230 (FIG. 7)
Experimental: (§2) Cell lysates of Ba/F3, TMPRSS11E-expressing Ba/F3 (BaF/TMPRSS11E), a TMPRSS11E-negative cancer cell line VMRC-LCD, and TMPRSS11E-positive cancer cell lines h2009 and ME-180 were prepared. 50 μL of NP-40 Lysis Buffer (0.5% (v/v) Nonidet P40, 20 mM Tris-HCl (pH 7.5), 150 mM NaCl, 5 mM EDTA) was added to 1×10⁶ cells and left at 4° C. for 15 minutes. Then, after centrifugation (14,000 rpm, 15 min), the supernatant was used as lysates. The lysates corresponding to 2×10⁵ cells were separated by SDS-PAGE and then transferred to Immobilon-P (Millipore Corp.) using Trans-Blot SD Semi-Dry Electrophoretic Transfer Cell (Bio-Rad Laboratories, Inc.). The membrane was gently washed with TBS-T (0.05% Tween 20, TBS) and then shaken for 1 hour in TBS-T containing 5% skim milk. After shaking for approximately 10 minutes in TBS-T, 0.5 μg/mL EA230 antibodies diluted with TBS-T containing 1% skim milk were added to the membrane, which was then shaken for 1 hour. […] Since the presumed molecular weight of TMPRSS11E is 47.7 kDa, it seemed that TMPRSS11E that underwent sugar chain modification was probably detected. This means that TMPRSS11E can be detected specifically by immunoblot using EA230.

[6] = target: T1, human TMPRSS11E, full-length, forced …; test: immunoblot of BaF/TMPRSS11E cell lysate, 0.5 ug/mL EA230 (FIG. 7)
Experimental: as §2

| binding result [1] | binding result [2] | Binder | other results |
| --- | --- | --- | --- |
| binds | binds | chi.TM191 (FTKO), low-fucose anti-TMPRSS11E mouse-human chimeric antibody (antibody, human IgG1, kappa, V domains shown, sugar chain free from alpha-1,6 core-fucose (produced in CHO_FTKO cells), also called low-fucose chimeric TM191) VH: EVKLVESGGGLVKPGGSLKLSCAASGFTFSDYGMAWVRQAPGKGPEWVAFISNLAYSSYYADTVTGRFTISRENAKNTLYLEMSSLRSEDSAMYYCARRIFDYDGDGPYEDYWGQGTSVTVSS VL: QIVLTQSPAIMSASPGEKVTLTCSATSSVSSRYVHWYQQKSGASPKLWIYGTSNLASGVPARFSGSGSGTSYSLTISSVEAEDAATYYCQQYHNDPPTFGAGTKLELKR | – |
| binds | binds | chi.TM191 (DG), anti-TMPRSS11E mouse-human chimeric antibody (antibody, V domains shown, Human IgG1/kappa constant regions, produced in DG44 CHO cells; also called chimeric TM191) VH: EVKLVESGGGLVKPGGSLKLSCAASGFTFSDYGMAWVRQAPGKGPEWVAFISNLAYSSYYADTVTGRFTISRENAKNTLYLEMSSLRSEDSAMYYCARRIFDYDGDGPYEDYWGQGTSVTVSS VL: QIVLTQSPAIMSASPGEKVTLTCSATSSVSSRYVHWYQQKSGASPKLWIYGTSNLASGVPARFSGSGSGTSYSLTISSVEAEDAATYYCQQYHNDPPTFGAGTKLELKR | – |
| – | – | TM191 (mouse hybridoma antibody) (antibody, V domains shown, Mouse IgG1 kappa) VH: EVKLVESGGGLVKPGGSLKLSCAASGFTFSDYGMAWVRQAPGKGPEWVAFISNLAYSSYYADTVTGRFTISRENAKNTLYLEMSSLRSEDSAMYYCARRIFDYDGDGPYEDYWGQGTSVTVSS VL: QIVLTQSPAIMSASPGEKVTLTCSATSSVSSRYVHWYQQKSGASPKLWIYGTSNLASGVPARFSGSGSGTSYSLTISSVEAEDAATYYCQQYHNDPPTFGAGTKLELK | binding result [3]: binds |
| – | – | EA230 (mouse hybridoma antibody) (antibody, V domains shown) VH: EVKLEESGGALVQPGGSMKLSCVASGFTVSNYWMSWVRQSPEKGLEWVAEVRLKSNNYVTHYAESVKGRFTISRDDSKSSVYLQMNNLRPEDTGIYYCTPFAYWGQGTLVTVSA VL: QIVLTQSPAILSASPGEKVTLTCSANSSVSSSYLYWHQQKPGSSPKLWIYRTSKLASGVPARFSGSGSGTSYSLTISSMEAEDAASYFCHQWDTYPPTFGGGTKLEIK | binding result [4]: binds; binding result [5]: binds; binding result [6]: binds |

Source: US20120128678A1 (FORERUNNER PHARMA RESEARCH, published 2012)
